This is an account of results in PMC5719983, “The Cryoelectron Microscopy Structure of the Type 1 Chaperone-Usher Pilus Rod” (Structure(London, England:1993), 2017).

This series concerns the molecule itself. The series can be described thus: co-sedimentation; in vitro assembly of FimA monomers to pilus rods: 50 μM FimA monomer in 20 mM acetic acid-NaOH pH 5.0, 150 mM NaCl, 7 days; rods pelleted at 186'000 x g, 10 min, 4°C.

B1: Mature FimA without its natural signal sequence (159 residues), refolded FimA monomer (natural protein)
chain: AATTVNGGTVHFKGEVVNAACAVDAGSVDQTVQLGQVRTASLAQEGATSSAVGFNIQLNDCDTNVASKAAVAFLGTAIDAGHTNVLALQSSAAGSATNVGVQILDRTGAALTLDGATFSSETTLNNGTNTIPFQARYFATGAATPGAANADATFKVQYQ
notes: the N-terminal methionine added for cytoplasmic expression was cleaved off quantitatively (measured 15826.0 Da). numbers count on: the mature protein; also called pili assembled in vitro
On to B1, for which the binding result is “binds”.
